Reference: US20070077617
Numbering of substitutions follows the chain as printed. Names and notes keep the numbering of the source.

B1: OmpT protease variant OmpT D97F (protein)
chain: STETLSFTPDNINADISLGTLSGKTKERVYLAEEGGRKVSQLDWKFNNAAIIKGAINWDLMPQISIGAAGWTTLGSRGGNMVDQDWMDSSNPGTWTFESRHPDTQLNYANEFDLNIKGWLLNEPNYRLGLMAGYQESRYSFTARGGSYIYSSEEGFRDDIGSFPNGERAIGYKQRFKMPYIGLTGSYRYEDFELGGTFKYSGWVESSDNDEHYDPGKRITYRSKVKDQNYYSVAVNAGYYVTPNAKVYVEGAWNRVTNKKGNTSLYDHNNNTSDYSKNGAGIENYNFITTAGLKYTF
B2: OmpT protease variant OmpT D97N (protein)
chain: B1 chain with F97N
B3: OmpT protease variant OmpT D97Q (protein)
chain: B1 chain with F97Q
B4: OmpT protease variant OmpT D97S (protein)
chain: B1 chain with F97S
B5: OmpT protease variant OmpT D97A (protein)
chain: B1 chain with F97A
B6: OmpT protease variant OmpT D97C (protein)
chain: B1 chain with F97C
B7: OmpT protease variant OmpT D97T (protein)
chain: B1 chain with F97T
B8: OmpT protease variant OmpT D97E (protein)
chain: B1 chain with F97E

molecular target: fusion protein PRK
Sequence (chain, as listed by the source): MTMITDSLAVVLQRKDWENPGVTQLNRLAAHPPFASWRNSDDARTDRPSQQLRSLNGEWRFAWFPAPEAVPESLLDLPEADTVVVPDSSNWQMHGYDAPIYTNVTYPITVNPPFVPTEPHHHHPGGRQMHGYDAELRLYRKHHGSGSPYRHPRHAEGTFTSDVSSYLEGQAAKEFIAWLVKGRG

Protein	relative cleavage efficiency [%]
B1	< 3
B2	< 3
B3	< 3
B4	< 3
B5	< 3
B6	3.9
B7	< 3
B8	39

molecular target: fusion protein PRN
Sequence (chain, as listed by the source): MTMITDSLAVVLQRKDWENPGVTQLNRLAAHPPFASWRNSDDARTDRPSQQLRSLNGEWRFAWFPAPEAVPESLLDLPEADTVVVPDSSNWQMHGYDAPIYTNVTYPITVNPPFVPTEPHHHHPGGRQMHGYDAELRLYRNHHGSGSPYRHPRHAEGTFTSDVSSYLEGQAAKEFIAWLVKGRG

Protein	relative cleavage efficiency [%]
B1	< 3
B2	< 3
B3	< 3
B4	< 3
B5	< 3
B6	< 3
B7	< 3
B8	< 3

molecular target: fusion protein PRL
Sequence (chain, as listed by the source): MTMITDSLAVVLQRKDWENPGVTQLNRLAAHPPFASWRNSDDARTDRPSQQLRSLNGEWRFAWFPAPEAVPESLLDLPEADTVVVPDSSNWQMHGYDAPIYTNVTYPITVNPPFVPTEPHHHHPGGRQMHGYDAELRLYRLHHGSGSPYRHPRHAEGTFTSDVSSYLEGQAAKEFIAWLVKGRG

Protein	relative cleavage efficiency
B1	less than 3%
B2	less than 3%
B3	less than 3%
B4	less than 3%
B5	less than 3%
B6	less than 3%
B7	less than 3%
B8	less than 3%

molecular target: fusion protein PRY
Sequence (chain, as listed by the source): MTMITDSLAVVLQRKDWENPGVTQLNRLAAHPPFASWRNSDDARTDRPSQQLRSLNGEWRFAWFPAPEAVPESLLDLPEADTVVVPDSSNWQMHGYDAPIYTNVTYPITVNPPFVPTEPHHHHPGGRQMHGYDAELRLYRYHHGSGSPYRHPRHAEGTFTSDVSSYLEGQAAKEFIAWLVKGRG

Protein	relative cleavage efficiency [%]
B1	< 3
B2	< 3
B3	< 3
B4	< 3
B5	< 3
B6	< 3
B7	< 3
B8	< 3

molecular target: fusion protein PRM
Sequence (chain, as listed by the source): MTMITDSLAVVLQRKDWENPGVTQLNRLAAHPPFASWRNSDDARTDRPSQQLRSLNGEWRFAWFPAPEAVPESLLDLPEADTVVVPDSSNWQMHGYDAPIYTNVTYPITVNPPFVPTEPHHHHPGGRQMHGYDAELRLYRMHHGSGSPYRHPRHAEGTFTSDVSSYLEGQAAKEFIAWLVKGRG

Protein	relative cleavage efficiency [%]
B1	< 3
B2	< 3
B3	< 3
B4	< 3
B5	< 3
B6	< 3
B7	< 3
B8	< 3

molecular target: fusion protein PRH
Sequence (chain, as listed by the source): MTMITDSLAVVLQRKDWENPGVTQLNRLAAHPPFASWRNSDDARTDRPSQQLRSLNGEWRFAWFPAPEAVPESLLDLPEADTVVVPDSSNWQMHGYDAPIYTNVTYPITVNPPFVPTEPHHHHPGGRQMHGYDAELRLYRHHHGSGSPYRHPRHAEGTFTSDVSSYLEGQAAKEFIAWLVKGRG

Protein	relative cleavage efficiency
B1	less than 3%
B2	less than 3%
B3	less than 3%
B4	less than 3%
B5	less than 3%
B6	less than 3%
B7	less than 3%
B8	less than 3%

molecular target: fusion protein PRE
Sequence (chain, as listed by the source): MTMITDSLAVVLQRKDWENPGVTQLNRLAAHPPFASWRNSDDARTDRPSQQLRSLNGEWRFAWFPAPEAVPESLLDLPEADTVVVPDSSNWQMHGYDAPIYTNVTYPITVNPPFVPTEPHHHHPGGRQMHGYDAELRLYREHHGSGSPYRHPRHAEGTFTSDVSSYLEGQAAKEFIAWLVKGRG

Protein	relative cleavage efficiency
B1	less than 3%
B2	less than 3%
B3	less than 3%
B4	less than 3%
B5	less than 3%
B6	less than 3%
B7	less than 3%
B8	less than 3%

molecular target: fusion protein PRI
Sequence (chain, as listed by the source): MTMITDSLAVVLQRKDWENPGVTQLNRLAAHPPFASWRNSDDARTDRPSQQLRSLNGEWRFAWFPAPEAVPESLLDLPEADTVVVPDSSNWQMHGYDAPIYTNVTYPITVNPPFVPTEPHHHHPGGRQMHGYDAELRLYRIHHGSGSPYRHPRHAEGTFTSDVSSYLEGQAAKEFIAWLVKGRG

Protein	relative cleavage efficiency [%]
B1	< 3
B2	< 3
B3	< 3
B4	< 3
B5	< 3
B6	< 3
B7	< 3
B8	< 3

molecular target: fusion protein PRP

Protein	relative cleavage efficiency
B1	less than 3%
B2	less than 3%
B3	less than 3%
B4	less than 3%
B5	less than 3%
B6	less than 3%
B7	less than 3%
B8	less than 3%

molecular target: fusion protein PRQ
Sequence (chain, as listed by the source): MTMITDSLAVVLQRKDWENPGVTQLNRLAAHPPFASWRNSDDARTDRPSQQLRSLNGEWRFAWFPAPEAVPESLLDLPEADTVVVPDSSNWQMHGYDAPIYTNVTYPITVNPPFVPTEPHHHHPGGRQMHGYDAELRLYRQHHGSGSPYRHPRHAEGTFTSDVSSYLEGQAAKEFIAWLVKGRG

Protein	relative cleavage efficiency
B1	less than 3%
B2	less than 3%
B3	less than 3%
B4	less than 3%
B5	less than 3%
B6	less than 3%
B7	less than 3%
B8	less than 3%

molecular target: fusion protein PRG
Sequence (chain, as listed by the source): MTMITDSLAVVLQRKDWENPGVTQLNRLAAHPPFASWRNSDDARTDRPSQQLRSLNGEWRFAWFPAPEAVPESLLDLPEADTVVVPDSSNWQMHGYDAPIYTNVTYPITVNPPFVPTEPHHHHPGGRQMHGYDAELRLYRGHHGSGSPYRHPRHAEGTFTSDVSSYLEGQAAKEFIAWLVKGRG

Protein	relative cleavage efficiency
B1	less than 3%
B2	less than 3%
B3	less than 3%
B4	less than 3%
B5	less than 3%
B6	less than 3%
B7	less than 3%
B8	less than 3%

molecular target: fusion protein PRS
Sequence (chain, as listed by the source): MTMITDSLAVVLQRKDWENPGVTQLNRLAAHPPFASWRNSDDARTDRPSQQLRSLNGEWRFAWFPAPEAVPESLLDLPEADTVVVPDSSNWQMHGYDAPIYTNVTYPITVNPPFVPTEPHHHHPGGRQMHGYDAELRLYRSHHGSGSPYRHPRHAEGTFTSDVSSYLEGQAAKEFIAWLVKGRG

Protein	relative cleavage efficiency [%]
B1	< 3
B2	4.1
B3	4.4
B4	< 3
B5	< 3
B6	5.6
B7	7.4
B8	7.2

molecular target: fusion protein PRW
Sequence (chain, as listed by the source): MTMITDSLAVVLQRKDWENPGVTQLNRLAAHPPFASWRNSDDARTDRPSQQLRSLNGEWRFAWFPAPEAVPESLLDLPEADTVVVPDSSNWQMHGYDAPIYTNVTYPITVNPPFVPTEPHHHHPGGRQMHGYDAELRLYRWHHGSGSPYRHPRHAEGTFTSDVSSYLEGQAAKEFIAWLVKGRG

Protein	relative cleavage efficiency
B1	less than 3%
B2	less than 3%
B3	less than 3%
B4	less than 3%
B5	less than 3%
B6	less than 3%
B7	less than 3%
B8	less than 3%

molecular target: fusion protein PRT
Sequence (chain, as listed by the source): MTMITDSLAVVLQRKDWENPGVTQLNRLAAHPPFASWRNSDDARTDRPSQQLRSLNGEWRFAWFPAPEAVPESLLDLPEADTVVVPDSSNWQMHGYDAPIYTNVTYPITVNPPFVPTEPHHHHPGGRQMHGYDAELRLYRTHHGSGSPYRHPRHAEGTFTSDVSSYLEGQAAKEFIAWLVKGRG

Protein	relative cleavage efficiency [%]
B1	< 3
B2	< 3
B3	< 3
B4	< 3
B5	< 3
B6	< 3
B7	< 3
B8	< 3

molecular target: fusion protein PRD
Sequence (chain, as listed by the source): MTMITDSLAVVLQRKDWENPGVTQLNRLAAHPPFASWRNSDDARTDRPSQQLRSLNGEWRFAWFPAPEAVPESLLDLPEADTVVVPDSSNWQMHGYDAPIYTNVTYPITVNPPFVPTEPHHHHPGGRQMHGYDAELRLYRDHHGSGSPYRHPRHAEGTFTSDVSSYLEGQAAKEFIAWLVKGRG

Protein	relative cleavage efficiency
B1	less than 3%
B2	less than 3%
B3	less than 3%
B4	less than 3%
B5	less than 3%
B6	less than 3%
B7	less than 3%
B8	less than 3%

molecular target: fusion protein PRF
Sequence (chain, as listed by the source): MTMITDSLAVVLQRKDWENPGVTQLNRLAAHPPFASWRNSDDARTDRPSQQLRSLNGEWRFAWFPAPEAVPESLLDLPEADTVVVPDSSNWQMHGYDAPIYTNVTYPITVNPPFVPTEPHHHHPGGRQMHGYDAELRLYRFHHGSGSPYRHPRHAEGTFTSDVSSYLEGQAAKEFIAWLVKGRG

Protein	relative cleavage efficiency [%]
B1	< 3
B2	< 3
B3	< 3
B4	< 3
B5	< 3
B6	4.6
B7	3.7
B8	3.4

molecular target: fusion protein PRC
Sequence (chain, as listed by the source): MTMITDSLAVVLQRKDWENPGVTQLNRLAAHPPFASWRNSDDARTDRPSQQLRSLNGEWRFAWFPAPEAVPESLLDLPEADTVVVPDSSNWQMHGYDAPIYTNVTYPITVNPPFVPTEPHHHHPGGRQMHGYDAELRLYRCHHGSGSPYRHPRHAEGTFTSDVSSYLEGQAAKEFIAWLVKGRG

Protein	relative cleavage efficiency [%]
B1	< 3
B2	< 3
B3	4.1
B4	3.1
B5	< 3
B6	4.8
B7	4.6
B8	6.9

molecular target: fusion protein PRR
Sequence (chain, as listed by the source): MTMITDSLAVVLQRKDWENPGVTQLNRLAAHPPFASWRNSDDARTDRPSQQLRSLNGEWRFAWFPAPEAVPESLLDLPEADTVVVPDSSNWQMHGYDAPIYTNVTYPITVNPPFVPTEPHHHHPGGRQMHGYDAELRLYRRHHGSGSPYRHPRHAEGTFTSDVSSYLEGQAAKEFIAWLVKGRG

Protein	relative cleavage efficiency [%]
B1	< 3
B2	< 3
B3	< 3
B4	< 3
B5	< 3
B6	4
B7	< 3
B8	49

molecular target: fusion protein PRA
Sequence (chain, as listed by the source): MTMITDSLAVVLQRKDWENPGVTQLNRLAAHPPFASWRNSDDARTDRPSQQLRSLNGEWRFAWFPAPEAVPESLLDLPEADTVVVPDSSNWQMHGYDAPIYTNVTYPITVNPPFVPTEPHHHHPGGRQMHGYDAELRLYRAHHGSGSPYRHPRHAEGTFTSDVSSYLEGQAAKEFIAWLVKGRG

Protein	relative cleavage efficiency [%]
B1	3.1
B2	3.8
B3	4
B4	4
B5	3.8
B6	6.2
B7	6.8
B8	6.5
